From US20220073599A1

Key:
[1] = target: human VEGFA-165 (human) (UniProt P15692); experiment: KinExA, VEGFA-165; set-up for VEGFA-165 not described
[2] = target: human VEGFA-121-His (human) (UniProt P15692); experiment: KinExA equilibrium titration in solution, VEGFA-121
human VEGFA-121-His (human), sequence (P15692 other isoform, or with tags, fused parts or gaps): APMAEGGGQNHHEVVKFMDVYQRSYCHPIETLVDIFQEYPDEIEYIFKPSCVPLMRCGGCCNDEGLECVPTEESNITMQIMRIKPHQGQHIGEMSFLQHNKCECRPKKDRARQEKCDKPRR

Aflibercept-analogue (Fc fusion), sequence (chain): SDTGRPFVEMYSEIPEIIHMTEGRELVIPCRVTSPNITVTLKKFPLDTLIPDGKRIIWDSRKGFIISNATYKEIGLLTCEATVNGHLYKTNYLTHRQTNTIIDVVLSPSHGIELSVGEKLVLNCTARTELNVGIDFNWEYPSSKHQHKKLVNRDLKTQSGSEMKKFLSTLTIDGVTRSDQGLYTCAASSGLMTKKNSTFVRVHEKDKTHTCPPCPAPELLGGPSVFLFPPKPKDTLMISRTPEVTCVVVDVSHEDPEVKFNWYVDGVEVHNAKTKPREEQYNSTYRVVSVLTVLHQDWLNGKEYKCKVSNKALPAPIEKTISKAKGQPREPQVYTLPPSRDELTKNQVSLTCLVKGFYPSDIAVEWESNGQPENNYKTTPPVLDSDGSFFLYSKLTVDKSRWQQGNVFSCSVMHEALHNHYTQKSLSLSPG
human VEGFA-165 (human), sequence (P15692 other isoform, or with tags, fused parts or gaps limits assumed): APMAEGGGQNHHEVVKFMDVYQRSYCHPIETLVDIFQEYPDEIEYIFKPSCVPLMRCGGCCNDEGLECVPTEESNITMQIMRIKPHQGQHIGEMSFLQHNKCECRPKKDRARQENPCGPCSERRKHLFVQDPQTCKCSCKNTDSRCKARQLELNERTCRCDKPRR

- Kd [1]: 0.1 pM
- Kd [2]: 0.2 pM
Substance: Aflibercept-analogue (Fc fusion)
